Reference: article PMC11116813, “Bipartite binding interface recruiting HP1 to chromosomal passenger complex at inner centromeres” (The Journal of Cell Biology, 2024)
Each block holds one binder with its values, some of them ahead of it.

Assays:
Settings in all cases: both partners purified
[1] = biological target: T1, full-length human HP1α WT (hHP1α), recombinant (human, UniProt P45973 1-191); assay: ITC; VP-ITC, 10 μM INCENP peptide or fragment in the cell, 100 μM HP1α full-length or CSD dimer in the syringe, 20°C, 20 mM NaPO4 pH 7.0, 150 mM NaCl, 1 mM DTT (Fig. 2D, Fig. 3D and E); one-site model
T1 construct: heterochromatin protein 1 alpha (HP1α), human, full length; Used as a dimer; The 6His-MBP tag was removed with TEV protease; also called HP1α (full-length, FL); HP1α dimer; source: E. coli BL21 DE3 (pCold), purified (Amylose Resin, TEV cleavage, Ni-NTA flow-through, HiTrap Q)

[2] = biological target: T1, full-length human HP1α WT (hHP1α), …; assay: pull-down; 10 μM full-length hHP1α mixed with 5 μM GST-tagged hINCENP -6His fragments in 20 mM NaPO4 pH 7.0, 150 mM NaCl, 1 mM DTT, 30 min at 4°C; Glutathione Sepharose 4B; CBB staining
[3] = biological target: T1, full-length human HP1α WT (hHP1α), …; assay: ITC; iTC200, full-length HP1α dimer in the cell (60 μM for hINCENP, 80 μM for hSgo1), 600 μM hINCENP or 800 μM hSgo1 fragment in the syringe, 25°C, 20 mM NaPO4 pH 7.0, 150 mM NaCl, 1 mM DTT (Fig. 6A, Fig. S5A); one-site model
[4] = biological target: T1, full-length human HP1α WT (hHP1α), …; assay: ITC; VP-ITC, 10 μM INCENP fragment in the cell, 100 μM HP1α dimer in the syringe, 20°C, 10 mM Tris pH 8.0, 150 mM NaCl, 1 mM DTT (Fig. 2C); one-site model

T1 sequence (P45973 whole entry, the tested form may be a part): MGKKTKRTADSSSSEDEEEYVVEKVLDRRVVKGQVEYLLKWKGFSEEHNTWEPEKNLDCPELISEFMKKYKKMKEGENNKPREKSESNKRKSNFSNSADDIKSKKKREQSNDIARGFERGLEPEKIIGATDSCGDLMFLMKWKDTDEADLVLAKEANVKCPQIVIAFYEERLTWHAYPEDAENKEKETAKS

B1: human INCENP (121-210) -6His, GST removed (Fig. 2D) (domain or fragment, UniProt Q9NQS7 121-210, looked up)
chain: LRRVTRAAAAAAAATMALAAPSSPTPESPTMLTKKPEDNHTQCQLVPVVEIGISERQNAEQHVTQLMSTEPLPRTLSPTPASATAPTSQG
notes: source: E. coli BL21 Codon Plus (pGEX6P1), purified (Ni-NTA, PreScission cleavage, Glutathione Sepharose flow-through, SEC)
binding result [1]: binds

B2: human INCENP (160-210) -6His, GST removed (domain or fragment, UniProt Q9NQS7 160-210, looked up)
chain: HTQCQLVPVVEIGISERQNAEQHVTQLMSTEPLPRTLSPTPASATAPTSQG
notes: INCENP, human, residues 160-210; Isotope-labelled (15N or 13C/15N) in the NMR experiments and unlabelled in ITC; also called 15N-INCENP (160–210) -6His; 13C/15N-INCENP (160–210) -6His; source: E. coli BL21 Codon Plus (pGEX6P1), purified (Ni-NTA, PreScission cleavage, Glutathione Sepharose flow-through, SEC); for NMR grown in M9 medium with 15N-ammonium chloride with or without 13C-glucose; not …
binding result [1]: binds

Other lines, results leading:

binding result [2]: binds
B3: GST-tagged human INCENP (160-210) -6His (domain or fragment, UniProt Q9NQS7 160-210, looked up)
chain: B2 chain
notes: INCENP, human, residues 160-210; also called INCENP fragment 160–210; source: E. coli BL21 Codon Plus (pGEX6P1), purified (non-cleaved version, SEC); not shown: His6, C-terminal, kept

Kd [3]: ~4000 nM
B4: human Sgo1 fragment (405-494), Tyr-added, GST removed (domain or fragment)
chain: YAKRALKYTDEKETEGSKPTKTPTTTPPETQQSPHLSLKDITNVSLYPVVKIRRLSLSPKKNKASPAVALPKRRCTASVNYKEPTLASKLR
notes: tyrosine residue inserted after the PreScission site, to determine the concentration; Sgo1 (shugoshin 1), human, residues 405-494, contains the canonical PVI motif; also called Sgo1 fragment containing the PVI motif (residues 405–494); Sgo1 405–494; source: E. coli BL21 Codon Plus (pGEX6P1), purified (Glutathione Sepharose, PreScission cleavage, SEC)

Kd [4]: 42 nM
B5: human INCENP (121-270) WT -6His, GST removed (domain or fragment, UniProt Q9NQS7 121-270, looked up)
chain: LRRVTRAAAAAAAATMALAAPSSPTPESPTMLTKKPEDNHTQCQLVPVVEIGISERQNAEQHVTQLMSTEPLPRTLSPTPASATAPTSQGIPTSDEESTPKKSKARILESITVSSLMATPQDPKGQGVGTGRSASKLRIAQVSPGPRDSP
notes: The methods describe no removal of the 6His tag; source: E. coli BL21 Codon Plus (pGEX6P1), purified (Ni-NTA, PreScission cleavage, Glutathione Sepharose flow-through, SEC)
